Source: patent US20090298765A1 (Takeda / Millennium, published 2009)
Where two headings read alike, the source gives them in different places. Non-standard residues stand in square brackets, D forms with d. No end group written: not given here. *: point of attachment. GuAmb = 4-guanidinomethylbenzoyl, N=C(N)NCc1ccc(C(=O)*)cc1; 2‑(indol-3-yl)ethylcarbamoyl = O=C(NCCc1c[nH]c2ccccc12)*; Propanoyl(3-indol-3-yl) = O=C(CCc1c[nH]c2ccccc12)*; Diphenylacetyl = O=C(C(c1ccccc1)c1ccccc1)*; indole‑3‑carbonyl = O=C(c1c[nH]c2ccccc12)*; indole‑3‑acetyl = O=C(Cc1c[nH]c2ccccc12)*; Arg(Me) = CNC(=N)NCCC[C@H](N)C(=O)O; Arg(n-Pr) = n-propylated arginine; Hydrocinnamoyl = O=C(CCc1ccccc1)*; Orn = NCCC[C@H](N)C(=O)O; azaGly = NNC(=O)O

B1: des(1-3)-Indole-3-acetyl-[AzaGly7,Arg(Me)9]MS10 (peptide)
peptide: {indole‑3‑acetyl}-NSF[azaGly]L[Arg(Me)]F-NH2
SMILES: CNC(=N)NCCC[C@H](NC(=O)[C@H](CC(C)C)NC(=O)NNC(=O)[C@H](Cc1ccccc1)NC(=O)[C@H](CO)NC(=O)[C@H](CC(N)=O)NC(=O)Cc1c[nH]c2ccccc12)C(=O)N[C@@H](Cc1ccccc1)C(N)=O
notes: also called Compound No. 266
B2: [Orn9]MS10 (peptide)
peptide: YNWNSFGL[Orn]F-NH2
modifications: N-terminus assumed
SMILES: CC(C)C[C@H](NC(=O)CNC(=O)[C@H](Cc1ccccc1)NC(=O)[C@H](CO)NC(=O)[C@H](CC(N)=O)NC(=O)[C@H](Cc1c[nH]c2ccccc12)NC(=O)[C@H](CC(N)=O)NC(=O)[C@@H](N)Cc1ccc(O)cc1)C(=O)N[C@@H](CCCN)C(=O)N[C@@H](Cc1ccccc1)C(N)=O
notes: also called Compound No. 314
B3: des(1-3)-2-(Indol-3-yl)ethylcarbamoyl-[AzaGly7,Arg(Me)9]MS10 (peptide)
peptide: {2‑(indol-3-yl)ethylcarbamoyl}-NSF[azaGly]L[Arg(Me)]F-NH2
SMILES: CNC(=N)NCCC[C@H](NC(=O)[C@H](CC(C)C)NC(=O)NNC(=O)[C@H](Cc1ccccc1)NC(=O)[C@H](CO)NC(=O)[C@H](CC(N)=O)NC(=O)NCCc1c[nH]c2ccccc12)C(=O)N[C@@H](Cc1ccccc1)C(N)=O
notes: also called Compound No. 279
B4: des(1-5)-3-(3-Indolyl)propionyl-[AzaGly7,Arg(Me)9]MS10 (peptide)
peptide: {Propanoyl(3-indol-3-yl)}-F[azaGly]L[Arg(Me)]F-NH2
SMILES: CNC(=N)NCCC[C@H](NC(=O)[C@H](CC(C)C)NC(=O)NNC(=O)[C@H](Cc1ccccc1)NC(=O)CCc1c[nH]c2ccccc12)C(=O)N[C@@H](Cc1ccccc1)C(N)=O
B5: [Nar9]MS10 (peptide)
peptide: YNWNSFGLXF
modifications: Nar9; C-terminal amide
notes: also called Compound No. 310
B6: des(1-3)-Indole-3-carbonyl-[AzaGly7,Arg(Me)9]MS10 (peptide)
peptide: {indole‑3‑carbonyl}-NSF[azaGly]L[Arg(Me)]F-NH2
notes: also called Compound No. 265
B7: [D-Tyr1,Ser4,Arg(Me)9]MS10 (peptide)
peptide: [dY]NWSSFGL[Arg(Me)]F-NH2
modifications: N-terminus assumed
SMILES: CNC(=N)NCCC[C@H](NC(=O)[C@H](CC(C)C)NC(=O)CNC(=O)[C@H](Cc1ccccc1)NC(=O)[C@H](CO)NC(=O)[C@H](CO)NC(=O)[C@H](Cc1c[nH]c2ccccc12)NC(=O)[C@H](CC(N)=O)NC(=O)[C@H](N)Cc1ccc(O)cc1)C(=O)N[C@@H](Cc1ccccc1)C(N)=O
B8: des(1)-[D-Asn2,Arg(Me)9]MS10 (peptide)
peptide: [dN]WNSFGL[Arg(Me)]F-NH2
modifications: N-terminus assumed
SMILES: CNC(=N)NCCC[C@H](NC(=O)[C@H](CC(C)C)NC(=O)CNC(=O)[C@H](Cc1ccccc1)NC(=O)[C@H](CO)NC(=O)[C@H](CC(N)=O)NC(=O)[C@H](Cc1c[nH]c2ccccc12)NC(=O)[C@H](N)CC(N)=O)C(=O)N[C@@H](Cc1ccccc1)C(N)=O
notes: also called Compound No. 216
B9: des(1)-[D-Tyr2,Phe3,AzaGly7,Arg(Me)9]MS10 (peptide)
peptide: [dY]FNSF[azaGly]L[Arg(Me)]F-NH2
modifications: N-terminus assumed
SMILES: CNC(=N)NCCC[C@H](NC(=O)[C@H](CC(C)C)NC(=O)NNC(=O)[C@H](Cc1ccccc1)NC(=O)[C@H](CO)NC(=O)[C@H](CC(N)=O)NC(=O)[C@H](Cc1ccccc1)NC(=O)[C@H](N)Cc1ccc(O)cc1)C(=O)N[C@@H](Cc1ccccc1)C(N)=O
notes: also called Compound No. 254
B10: des(1)-[D-Tyr2,Ser3,Arg(Me)9]MS10 (peptide)
peptide: [dY]SNSFGL[Arg(Me)]F-NH2
modifications: N-terminus assumed
SMILES: CNC(=N)NCCC[C@H](NC(=O)[C@H](CC(C)C)NC(=O)CNC(=O)[C@H](Cc1ccccc1)NC(=O)[C@H](CO)NC(=O)[C@H](CC(N)=O)NC(=O)[C@H](CO)NC(=O)[C@H](N)Cc1ccc(O)cc1)C(=O)N[C@@H](Cc1ccccc1)C(N)=O
notes: also called Compound No. 226
B11: des(1)-[D-Asn2,D-Trp3,Arg(Me)9]MS10 (peptide)
peptide: [dN][dW]NSFGL[Arg(Me)]F-NH2
modifications: N-terminus assumed
SMILES: CNC(=N)NCCC[C@H](NC(=O)[C@H](CC(C)C)NC(=O)CNC(=O)[C@H](Cc1ccccc1)NC(=O)[C@H](CO)NC(=O)[C@H](CC(N)=O)NC(=O)[C@@H](Cc1c[nH]c2ccccc12)NC(=O)[C@H](N)CC(N)=O)C(=O)N[C@@H](Cc1ccccc1)C(N)=O
notes: also called Compound No. 225
B12: des(1)-[D-Tyr2,Ile3,Arg(Me)9]MS10 (peptide)
peptide: [dY]INSFGL[Arg(Me)]F-NH2
modifications: N-terminus assumed
SMILES: CC[C@H](C)[C@H](NC(=O)[C@H](N)Cc1ccc(O)cc1)C(=O)N[C@@H](CC(N)=O)C(=O)N[C@@H](CO)C(=O)N[C@@H](Cc1ccccc1)C(=O)NCC(=O)N[C@@H](CC(C)C)C(=O)N[C@@H](CCCNC(=N)NC)C(=O)N[C@@H](Cc1ccccc1)C(N)=O
notes: also called Compound No. 228
B13: des(1-3)-Diphenylacetyl-[AzaGly7,Arg(Me)9]MS10 (peptide)
peptide: Diphenylacetyl-NSF[azaGly]L[Arg(Me)]F-NH2
SMILES: CNC(=N)NCCC[C@H](NC(=O)[C@H](CC(C)C)NC(=O)NNC(=O)[C@H](Cc1ccccc1)NC(=O)[C@H](CO)NC(=O)[C@H](CC(N)=O)NC(=O)C(c1ccccc1)c1ccccc1)C(=O)N[C@@H](Cc1ccccc1)C(N)=O
notes: also called Compound No. 268
B14: [D-Tyr1,D-Asn2,Thr5,AzaGly7,Arg(Me)9]MS10 (peptide)
peptide: [dY][dN]WNTF[azaGly]L[Arg(Me)]F-NH2
modifications: N-terminus assumed
SMILES: CNC(=N)NCCC[C@H](NC(=O)[C@H](CC(C)C)NC(=O)NNC(=O)[C@H](Cc1ccccc1)NC(=O)[C@@H](NC(=O)[C@H](CC(N)=O)NC(=O)[C@H](Cc1c[nH]c2ccccc12)NC(=O)[C@@H](CC(N)=O)NC(=O)[C@H](N)Cc1ccc(O)cc1)[C@@H](C)O)C(=O)N[C@@H](Cc1ccccc1)C(N)=O
notes: also called Compound No. 298
B15: [D-Tyr1,Thr5,AzaGly7,Arg(Me)9]MS10 (peptide)
peptide: [dY]NWNTF[azaGly]L[Arg(Me)]F-NH2
modifications: N-terminus assumed
SMILES: CNC(=N)NCCC[C@H](NC(=O)[C@H](CC(C)C)NC(=O)NNC(=O)[C@H](Cc1ccccc1)NC(=O)[C@@H](NC(=O)[C@H](CC(N)=O)NC(=O)[C@H](Cc1c[nH]c2ccccc12)NC(=O)[C@H](CC(N)=O)NC(=O)[C@H](N)Cc1ccc(O)cc1)[C@@H](C)O)C(=O)N[C@@H](Cc1ccccc1)C(N)=O
notes: also called Compound No. 297
B16: [D-Tyr1,Arg(n-Pr)9]MS10 (peptide)
peptide: [dY]NWNSFGL[Arg(n-Pr)]F-NH2
B17: [D-Tyr1,D-Asn2,AzaGly7,Arg(Me)9]MS10 (peptide)
peptide: [dY][dN]WNSF[azaGly]L[Arg(Me)]F-NH2
notes: also called Compound No. 237
B18: [6Ψ7,CSNH,D-Tyr1,Arg(Me)9]MS10 (peptide)
peptide: [dY]NWNSFGL[Arg(Me)]F-NH2
modifications: also: bond 6-7 CONH replaced by CSNH (thioamide)
notes: also called Compound No. 296
B19: des(1-3)-3-(3-Indolyl)propionyl-[AzaGly7,Arg(Me)9]MS10 (peptide)
peptide: {Propanoyl(3-indol-3-yl)}-NSF[azaGly]L[Arg(Me)]F-NH2
modifications: also: also named 1-(3-indolyl)propionyl cap
notes: also called Compound No. 260
B20: [D-Tyr1,Gln4,Arg(Me)9]MS10 (peptide)
peptide: [dY]NWQSFGL[Arg(Me)]F-NH2
modifications: N-terminus assumed
SMILES: CNC(=N)NCCC[C@H](NC(=O)[C@H](CC(C)C)NC(=O)CNC(=O)[C@H](Cc1ccccc1)NC(=O)[C@H](CO)NC(=O)[C@H](CCC(N)=O)NC(=O)[C@H](Cc1c[nH]c2ccccc12)NC(=O)[C@H](CC(N)=O)NC(=O)[C@H](N)Cc1ccc(O)cc1)C(=O)N[C@@H](Cc1ccccc1)C(N)=O
B21: des(1-3)-3-Phenylpropionyl-[AzaGly7,Arg(Me)9]MS10 (peptide)
peptide: Hydrocinnamoyl-NSF[azaGly]L[Arg(Me)]F-NH2
notes: also called Compound No. 269
B22: des(1-5)-GuAmb-[Arg(Me)9]MS10 (peptide)
peptide: GuAmb-FGL[Arg(Me)]F-NH2
SMILES: CNC(=N)NCCC[C@H](NC(=O)[C@H](CC(C)C)NC(=O)CNC(=O)[C@H](Cc1ccccc1)NC(=O)c1ccc(CNC(=N)N)cc1)C(=O)N[C@@H](Cc1ccccc1)C(N)=O
B23: [Nar(Me)9]MS10 (peptide)
peptide: YNWNSFGLXF
modifications: Nar(Me)9; C-terminal amide
notes: also called Compound No. 311

How the values were obtained:
[1] = biological target: T1, human OT7T175 (metastin receptor) (human, UniProt Q969F8 1-398); experiment: cell-based or functional assay
[2] = biological target: T1, human OT7T175 (metastin receptor); experiment: cell-based or functional assay; remark: listed apart in the source
[3] = biological target: T1, human OT7T175 (metastin receptor); experiment: competition with Cy-5 metastin (40-54) on hOT7T175-CHO cells, FMAT
[4] = biological target: T1, human OT7T175 (metastin receptor); experiment: cell-based or functional assay; remark: listed apart in the source

T1 sequence (Q969F8 whole entry L364H): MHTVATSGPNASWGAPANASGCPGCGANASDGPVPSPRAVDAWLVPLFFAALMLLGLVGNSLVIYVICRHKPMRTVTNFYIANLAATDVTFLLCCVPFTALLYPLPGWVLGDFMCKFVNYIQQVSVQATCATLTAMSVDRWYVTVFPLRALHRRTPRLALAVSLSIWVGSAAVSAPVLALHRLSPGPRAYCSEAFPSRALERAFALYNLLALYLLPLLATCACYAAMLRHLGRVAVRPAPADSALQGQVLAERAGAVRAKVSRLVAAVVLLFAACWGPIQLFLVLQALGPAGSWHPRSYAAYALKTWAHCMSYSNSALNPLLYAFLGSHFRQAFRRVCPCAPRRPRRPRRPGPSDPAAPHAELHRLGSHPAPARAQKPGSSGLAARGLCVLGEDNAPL

Binder | Ca ion level-increasing activity (FLIPR) [1] | Ca ion level-increasing activity (FLIPR, 40 s) [2] [EC50/MS10 EC50] | IC50 [3] [nM] | Ca ion level-increasing activity (FLIPR) [4]
B1 | 2 x Metastin (1-54) | 5.4 | 230 | –
B2 | 1 x Metastin (1-54) | 4.4 | 470 | –
B3 | 5 x Metastin (1-54) | 6.4 | 29 | –
B4 | 2 x Metastin (1-54) | 5.9 | – | –
B5 | 3 x Metastin (1-54) | 2 | 310 | –
B6 | 3 x Metastin (1-54) | 4.4 | 95 | –
B7 | – | – | – | 0.5 x Metastin (1-54)
B8 | – | – | 700 | 1 x Metastin (1-54)
B9 | – | – | 11 | 1 x Metastin (1-54)
B10 | – | – | 100 | 1 x Metastin (1-54)
B11 | – | – | 410 | 1 x Metastin (1-54)
B12 | – | – | 40 | 5 x Metastin (1-54)
B13 | 1 x Metastin (1-54) | 4.5 | 550 | –
B14 | 5 x Metastin (1-54) | 1.8 | 0.25 | –
B15 | 1 x Metastin (1-54) | 5.5 | 0.93 | –
B16 | – | – | – | 0.5 x Metastin (1-54)
B17 | – | – | 27 | 3 x Metastin (1-54)
B18 | 3 x Metastin (1-54) | 5.2 | 14 | –
B19 | 5 x Metastin (1-54) | 4.3 | 320 | –
B20 | – | – | – | 0.5 x Metastin (1-54)
B21 | 3 x Metastin (1-54) | 3.4 | 470 | –
B22 | 1 x Metastin (1-54) | 5 | – | –
B23 | 1 x Metastin (1-54) | 6.2 | 470 | –
